Series [1] has as its target truncated human βB2-crystallin (14–194) (human). Description: SEC-MALS. For orientation: Size exclusion chromatography separates by hydrodynamic size, large species first.
The series “SEC-MALS” concerns the molecule itself. Description: SEC-MALS.

By stoichiometry N is commonly meant a count of units in the complex or per binding partner.

Regarding “truncated human βB2-crystallin (14–194) (domain or fragment)”, in series [1], the stoichiometry N was 2.

B1: full-length human βB2-crystallin (natural protein, UniProt P43320 1-205, looked up)
chain: MASDHQTQAGKPQSLNPKIIIFEQENFQGHSHELNGPCPNLKETGVEKAGSVLVQAGPWVGYEQANCKGEQFVFEKGEYPRWDSWTSSRRTDSLSSLRPIKVDSQEHKIILYENPNFTGKKMEIIDDDVPSFHAHGYQEKVSSVRVQSGTWVGYQYPGYRGLQYLLEKGDYKDSSDFGAPHPQVQSVRRIRDMQWHQRGAFHPSN
Consider B1, for which the “stoichiometry N” value in the series “SEC-MALS” came out at 2.
